Measured values reported in the Immune Epitope Database (IEDB).

Legend:
HLA-A*02:11 [1] = experiment: IEDB peptide-MHC binding, purified MHC/competitive/fluorescence; filed as Kd, often an IC50 or EC50 that approximates it; ≥ and ≤ were set here for values at or beyond the usual limits of such assays
HLA-A*69:01 [2] = experiment: as above
HLA-A*02:06 = experiment: as above
HLA-A*02:19 [3] = experiment: as above; settings: source organism: Human immunodeficiency virus 1
HLA-A*02:01 [4] = experiment: as above
HLA-A*02:12 [5] = experiment: as above
HLA-A*02:03 [6] = experiment: as above
HLA-A*02:16 [7] = experiment: as above; settings: source organism: Human immunodeficiency virus 1
HLA-B*39:01 = experiment: as above
HLA-B*46:01 = experiment: as above
HLA-B*57:01 = experiment: as above
HLA-B*18:01 = experiment: as above
HLA-B*15:17 = experiment: as above
HLA-B*15:01 [8] = experiment: as above
HLA-B*27:03 = experiment: as above
HLA-A*26:01 = experiment: as above
HLA-B*51:01 = experiment: as above
HLA-A*03:01 = experiment: IEDB peptide-MHC binding, purified MHC/direct/fluorescence; filed as Kd, often an IC50 or EC50 that approximates it; ≥ and ≤ were set here for values at or beyond the usual limits of such assays
HLA-A*02:11 [9] = experiment: as above
HLA-A*02:19 [10] = experiment: as above
HLA-A*29:02 = experiment: as above
HLA-A*02:12 [11] = experiment: as above
HLA-B*40:01 = experiment: as above; settings: source organism: Ebola virus - Eckron (Zaire, 1976)
HLA-A*24:03 = experiment: as above
HLA-A*02:03 [12] = experiment: as above
HLA-A*23:01 = experiment: as above
HLA-A*68:02 = experiment: as above
HLA-A*02:16 [13] = experiment: as above
HLA-A*69:01 [14] = experiment: as above; settings: source organism: Haemophilus influenzae
HLA-A*02:01 [15] = experiment: as above
HLA-B*15:01 [16] = experiment: as above; settings: source organism: Haemophilus influenzae
HLA-B*58:01 = experiment: as above; settings: source organism: Haemophilus influenzae
HLA-B*07:02 [17] = experiment: as above; settings: source organism: Zaire ebolavirus
HLA-B*07:02 [18] = experiment: IEDB peptide-MHC binding, purified MHC/competitive/fluorescence; ≥ and ≤ were set here for values at or beyond the usual limits of such assays; settings: source organism: Zaire ebolavirus
HLA-B*15:01 [19] = experiment: as above; settings: source organism: Zaire ebolavirus
HLA-B*08:01 = experiment: as above; settings: source organism: Zaire ebolavirus
HLA-A*24:02 = experiment: as above; settings: source organism: Zaire ebolavirus
HLA-B*27:05 = experiment: IEDB peptide-MHC binding, purified MHC/direct/fluorescence; filed as Kd, often an IC50 or EC50 that approximates it; ≥ and ≤ were set here for values at or beyond the usual limits of such assays; settings: source organism: Reston ebolavirus - Reston
HLA-A*01:01 = experiment: IEDB peptide-MHC binding, purified MHC/competitive/fluorescence; filed as Kd, often an IC50 or EC50 that approximates it; ≥ and ≤ were set here for values at or beyond the usual limits of such assays; settings: source organism: Human immunodeficiency virus 1
HLA-A*30:01 = experiment: as above; settings: source organism: Human immunodeficiency virus 1
HLA-A*26:02 = experiment: as above; settings: source organism: Human immunodeficiency virus 1
HLA-A*11:01 = experiment: as above; settings: source organism: Human immunodeficiency virus 1
[20] = source organism: Human immunodeficiency virus 1
[21] = source organism: Zaire ebolavirus
[22] = source organism: Haemophilus influenzae 3655
[23] = source organism: Reston ebolavirus
[24] = source organism: Orthohantavirus hantanense

GLGQHIYET
0.00955 µM: Kd (HLA-A*02:11 [1]; [20])
0.00203 µM: Kd (HLA-A*02:16 [7])
3.68 µM: Kd (HLA-A*02:01 [4]; [20])
0.041 µM: Kd (HLA-A*02:03 [6]; [20])
0.119 µM: Kd (HLA-A*02:06; [20])
≥ 20 µM: Kd (HLA-A*69:01 [2]; [20])
0.771 µM: Kd (HLA-A*02:19 [3])
0.0755 µM: Kd (HLA-A*02:12 [5]; [20])

KEGKLQCRI
≥ 20 µM: Kd (HLA-B*39:01; [21]) | Kd (HLA-B*46:01; [21]) | Kd (HLA-A*69:01 [2]; [21]) | Kd (HLA-A*02:01 [4]; [21]) | Kd (HLA-B*57:01; [21]) | Kd (HLA-B*18:01; [21]) | Kd (HLA-B*15:17; [21]) | Kd (HLA-B*15:01 [8]; [21]) | Kd (HLA-B*27:03; [21]) | Kd (HLA-A*26:01; [21]) | Kd (HLA-B*51:01; [21]) | Kd (HLA-A*03:01; [21]) | Kd (HLA-A*02:11 [9]; [21]) | Kd (HLA-A*02:19 [10]; [21]) | Kd (HLA-A*29:02; [21]) | Kd (HLA-A*02:12 [11]; [21]) | Kd (HLA-B*40:01) | Kd (HLA-A*24:03; [21]) | Kd (HLA-A*02:03 [12]; [21]) | Kd (HLA-A*23:01; [21]) | Kd (HLA-A*68:02; [21]) | Kd (HLA-A*02:16 [13]; [21])

LMTAISQGI
1.72 µM: Kd (HLA-A*69:01 [14])
2 µM: Kd (HLA-B*15:01 [16])
0.0295 µM: Kd (HLA-A*02:01 [15]; source organism: Haemophilus influenzae)
0.367 µM: Kd (HLA-B*58:01)
0.00115 µM: Kd (HLA-A*02:12 [5]; [22])
≤ 0.0001 µM: Kd (HLA-A*02:11 [1]; [22]) | Kd (HLA-A*02:06; [22]) | Kd (HLA-A*02:03 [6]; [22])

RDRFKRTSF
18.9 µM: IC50 (HLA-A*24:02)
≥ 20 µM: Kd (HLA-B*39:01; [21]) | Kd (HLA-B*46:01; [21]) | Kd (HLA-A*69:01 [2]; [21]) | Kd (HLA-A*02:01 [4]; [21]) | Kd (HLA-B*57:01; [21]) | Kd (HLA-B*18:01; [21]) | Kd (HLA-B*15:17; [21]) | Kd (HLA-B*15:01 [8]; [21]) | Kd (HLA-B*27:03; [21]) | Kd (HLA-A*26:01; [21]) | Kd (HLA-B*51:01; [21]) | Kd (HLA-A*03:01; [21]) | Kd (HLA-A*02:11 [9]; [21]) | Kd (HLA-A*02:19 [10]; [21]) | Kd (HLA-B*07:02 [17]) | Kd (HLA-A*02:12 [11]; [21]) | Kd (HLA-A*24:03; [21]) | Kd (HLA-A*02:03 [12]; [21]) | Kd (HLA-A*23:01; [21]) | Kd (HLA-A*68:02; [21]) | Kd (HLA-A*02:16 [13]; [21])
36.4 µM: IC50 (HLA-B*15:01 [19])
≥ 74.2 µM: IC50 (HLA-B*07:02 [18])
≥ 114 µM: IC50 (HLA-B*08:01)

RRELSKEKL
≥ 20 µM: Kd (HLA-B*39:01; [23]) | Kd (HLA-B*46:01; [23]) | Kd (HLA-A*69:01 [2]; [23]) | Kd (HLA-A*02:01 [4]; [23]) | Kd (HLA-B*57:01; [23]) | Kd (HLA-B*18:01; [23]) | Kd (HLA-B*15:17; [23]) | Kd (HLA-B*15:01 [8]; [23]) | Kd (HLA-B*27:03; [23]) | Kd (HLA-A*26:01; [23]) | Kd (HLA-B*51:01; [23]) | Kd (HLA-A*03:01; [23]) | Kd (HLA-A*02:11 [9]; [23]) | Kd (HLA-A*02:19 [10]; [23]) | Kd (HLA-A*29:02; [23]) | Kd (HLA-A*02:12 [11]; [23]) | Kd (HLA-A*24:03; [23]) | Kd (HLA-A*02:03 [12]; [23]) | Kd (HLA-A*23:01; [23]) | Kd (HLA-A*68:02; [23]) | Kd (HLA-B*27:05) | Kd (HLA-A*02:16 [13]; [23])

RSLFNTIAVLY
0.0923 µM: Kd (HLA-B*15:17; [20])
0.676 µM: Kd (HLA-A*02:06; [20])
1.35 µM: Kd (HLA-A*26:02)
3.66 µM: Kd (HLA-B*15:01 [8]; [20])
1.49 µM: Kd (HLA-B*18:01; [20])
≥ 20 µM: Kd (HLA-A*01:01) | Kd (HLA-A*30:01) | Kd (HLA-A*11:01)
0.356 µM: Kd (HLA-A*02:03 [6]; [20])

WLIEPCKLL
0.005 µM: Kd (HLA-A*02:11 [9]; [24])
0.0243 µM: Kd (HLA-A*02:01 [15]; [24])
0.139 µM: Kd (HLA-A*02:12 [11]; [24])
